Key:
CD3-OX40L BsM_M = biological target: T1, CD3-OX40L BsM_M; test: ELISA, plate coated with 1 μg/ml OX40-hFc, binder titrated from 10 μg/ml
T1 construct: made in CHO-S cells; also called 单体形式的抗CD3/OX40L双特异性分子

CD3-OX40L BsM_D = biological target: T2, CD3-OX40L BsM_D; test: as above
T2 construct: Glycosylated, disulfide-linked homodimer through the IgD hinge linker; made in CHO-S cells; also called 二聚体形式的抗CD3/OX40L双特异性分子

CD3-GITRL BsM_D = biological target: T3, CD3-GITRL BsM_D; test: ELISA, plate coated with 1 μg/ml GITR-hFc, binder titrated from 10 μg/ml
T3 construct: Glycosylated, disulfide-linked homodimer through the IgD hinge linker; made in CHO-S cells; also called 二聚体形式的抗CD3/GITRL双特异性分子

CD3-GITRL BsM_M = biological target: T4, CD3-GITRL BsM_M; test: as above
T4 construct: made in CHO-S cells; also called 单体形式的抗CD3/GITRL双特异性分子

CD3-CD70BsM_D = biological target: T5, CD3-CD70BsM_D; test: ELISA, plate coated with 1 μg/ml CD27-hFc, binder titrated from 10 μg/ml
T5 construct: Glycosylated, disulfide-linked homodimer through the IgD hinge linker; made in CHO-S cells; also called 二聚体形式的抗CD3/CD70双特异性分子

CD3-CD70BsM_M = biological target: T6, CD3-CD70BsM_M; test: as above
T6 construct: made in CHO-S cells; also called 单体形式的抗CD3/CD70双特异性分子

CD3-B7RP-1BsM_D = biological target: T7, CD3-B7RP-1BsM_D; test: ELISA, plate coated with 1 μg/ml ICOS-hFc, binder titrated from 10 μg/ml
T7 construct: Glycosylated, disulfide-linked homodimer through the IgD hinge linker; made in CHO-S cells; also called 二聚体形式的抗CD3/B7RP-1双特异性分子

CD3-B7RP-1BsM_M = biological target: T8, CD3-B7RP-1BsM_M; test: as above
T8 construct: made in CHO-S cells; also called 单体形式的抗CD3/B7RP-1双特异性分子

B1: 人类OX40-hFc融合蛋白 (Fc fusion)
chain: LHCVGDTYPSNDRCCHECRPGNGMVSRCSRSQNTVCRPCGPGFYNDVVSSKPCKPCTWCNLRSGSERKQLCTATQDTVCRCRAGTQPLDSYKPGVDCAPCPPGHFSPGDNQACKPWTNCTLAGKHTLQPASNSSDAICEDRDPPATQPQETQGPPARPITVQPTEAWPRTSQGPSTRPVEVPGGRA
notes: Bought fusion protein; also called 重组蛋白OX40-hFc; not shown: human Fc (hFc) of the bought fusion protein
binding result (CD3-OX40L BsM_M): binds
binding result (CD3-OX40L BsM_D): binds

B2: 人类GITR-hFc融合蛋白 (Fc fusion)
chain: QRPTGGPGCGPGRLLLGTGTDARCCRVHTTRCCRDYPGEECCSEWDCMCVQPEFHCGDPCCTTCRHHPCPPGQGVQSQGKFSFGFQCIDCASGTFSGGHEGHCKPWTDCTQFGFLTVFPGNKTHNAVCVPGSPPAEP
notes: Bought fusion protein; also called 重组蛋白GITR-hFc; not shown: human Fc (hFc) of the bought fusion protein
binding result (CD3-GITRL BsM_D): binds
binding result (CD3-GITRL BsM_M): binds

B3: 人类CD27-hFc融合蛋白 (Fc fusion)
chain: ATPAPKSCPERHYWAQGKLCCQMCEPGTFLVKDCDQHRKAAQCDPCIPGVSFSPDHHTRPHCESCRHCNSGLLVRNCTITANAECACRNGWQCRDKECTECDPLPNPSLTARSSQALSPHPQPTHLPYVSEMLEARTAGHMQTLADFRQLPARTLSTHWPPQRSLCSSDFIR
notes: Bought fusion protein; also called 重组蛋白CD27-hFc; not shown: human Fc (hFc) of the bought fusion protein
binding result (CD3-CD70BsM_D): binds
binding result (CD3-CD70BsM_M): binds

B4: 人类ICOS-hFc融合蛋白 (Fc fusion)
chain: EINGSANYEMFIFHNGGVQILCKYPDIVQQFKMQLLKGGQILCDLTKTKGSGNTVSIKSLKFCHSQLSNNSVSFFLYNLDHSHANYYFCNLSIFDPPPFKVTLTGGYLHIYESQLCCQLK
notes: Bought fusion protein; also called 重组蛋白ICOS-hFc; not shown: human Fc (hFc) of the bought fusion protein
binding result (CD3-B7RP-1BsM_D): binds
binding result (CD3-B7RP-1BsM_M): binds
